Laboratory results reported in patent US8535662B2, “Apyrase therapy for bleeding conditions” (Apt Therapeutics, Inc., priority 2010, dated 2013).

Assays:
[1] = system: Wistar Furth recipients of Lewis lungs; assay: Allogenic rat lung transplant model, Lewis to Wistar Furth (Example 11); assay type: in vivo; conditions: rats, 0.66 mg/kg/day IV for 7 days
Experimental: Lewis donor lungs stored for a minimal cold ischemia time of 1 hr were engrafted into allogenic Wistar Furth recipients and treated for 7 days in the following manner:
1. Saline: Received Saline 250 μl/day
2. Apyrase: Received Apyrase agent, 0.66 mg/kg/day IV
3. CyA (standard): Received Cyclosporine A 25 mg/kg/day, IP (standard dose used in previous studies)
4. CyA (low): Received Cyclosporine A 5.0 mg/kg/day, IP (sub optimal dose)
5. CyA (low)+apyrase agent: Received Cyclosporine A 5.0 mg/kg/day, IP and Received apyrase agent, 0.66 mg/kg/day IV
On post-operative day 7 recipients were evaluated for lung graft function by assessing PaO2 (FIG. 10) and then sacrificed and scored blindly for vascular rejection (FIG. 11) using the ISHLT scoring system by a pathologist who routinely evaluates lung allograft rejection. The ISHLT scoring criteria is a scale from where a score of A0 there is no evidence of vascular rejection as in completely syngeneic recipients (e.g., Lewis to Lewis lung transplantation) to A4 as is almost always observed in Lewis to Wistar Furth Recipients. Statistical differences between treatment groups (n=10) were determined by the student t test where significance differences were assessed as p<0.05. Control group for the alloimmune response was the Lewis to Lewis lung transplant combination.

[2] = system: ADP-induced platelet aggregation; assay: Ex vivo ADP-induced platelet aggregation in platelet-rich plasma in pigs (Example 5); set-up: species or system pig

B1: sol CD39L3 R67G T69R (protein)
chain: EVLPPGLKYGIVLDAGSSGTRVYVYQWPAEKENNTGVVSQTFKCSVKGSGISSYGNNPQDVPRAFEECMQKVKGQVPSHLHGSTPIHLGATAGMRLLRLQNETAANEVLESIQSYFKSQPFDFRGAQIISGQEEGVYGWITANYLMGNFLEKNLWHMWVHPHGVETTGALDLGGASTQISFVAGEKMDLNTSDIMQVSLYGYVYTLYTHSFQCYGRNEAEKKFLAMLLQNSPTKNHLTNPCYPRDYSISFTMGHVFDSLCTVDQRPESYNPNDVITFEGTGDPSLCKEKVASIFDFKACHDQETCSFDGVYQPKIKGPFVAFAGFYYTASALNLSGSFSLDTFNSSTWNFCSQNWSQLPLLLPKFDEVYARSYCFSANYIYHLFVNGYKFTEETWPQIHFEKEVGNSSIAWSLGYMLSLTNQIPAESPLIRLPIEPPV
modifications: glycosylated; synthetically constructed apyrase
- alloimmune responses in lung allograft recipients (PaO2, ISHLT vascular rejection score) [1]: effective at suppressing alloimmune responses
- persistence of platelet inhibition ([2]; 0.9-2.25 mg/kg IV): at least 5 h
- time after IV injection to >95% inhibition ([2]; 0.9-2.25 mg/kg IV): ≤ 5 min
- inhibition of ADP-induced aggregation ([2]; 0.9-2.25 mg/kg single IV bolus with aspirin and heparin): > 95%
- platelet aggregation by 24 h ([2]; 24 h after dosing): returned to normal
